Experimental data published in patent US7834164B2 (priority 2006, dated 2010).
“Also recorded” adds a separate entry of the source. Bridge positions count the residues as written; N and C are the ends. Square brackets hold non-standard residues; d marks the D form. Ends that are not written are not given here. Peptide text beside a SMILES is read from it. mPEG 20 kDa = 20 kDa monomethoxy-PEG attached via aldehyde at the N-terminus; hArg = N=C(N)NCCCC[C@H](N)C(=O)O

Tests used:
Type in all cases: cell-based
human Kv1.3 = human Kv1.3 (Homo sapiens, UniProt P22001); parameters: host or cells: HEK293
[1] = test system: IL-2 production in human whole blood
[2] = test system: IFN-g production in human whole blood
[3] = test system: CD40L on T cells in human whole blood
[4] = test system: IL-2R on T cells in human whole blood

Chain of human Kv1.3 (P22001 whole entry): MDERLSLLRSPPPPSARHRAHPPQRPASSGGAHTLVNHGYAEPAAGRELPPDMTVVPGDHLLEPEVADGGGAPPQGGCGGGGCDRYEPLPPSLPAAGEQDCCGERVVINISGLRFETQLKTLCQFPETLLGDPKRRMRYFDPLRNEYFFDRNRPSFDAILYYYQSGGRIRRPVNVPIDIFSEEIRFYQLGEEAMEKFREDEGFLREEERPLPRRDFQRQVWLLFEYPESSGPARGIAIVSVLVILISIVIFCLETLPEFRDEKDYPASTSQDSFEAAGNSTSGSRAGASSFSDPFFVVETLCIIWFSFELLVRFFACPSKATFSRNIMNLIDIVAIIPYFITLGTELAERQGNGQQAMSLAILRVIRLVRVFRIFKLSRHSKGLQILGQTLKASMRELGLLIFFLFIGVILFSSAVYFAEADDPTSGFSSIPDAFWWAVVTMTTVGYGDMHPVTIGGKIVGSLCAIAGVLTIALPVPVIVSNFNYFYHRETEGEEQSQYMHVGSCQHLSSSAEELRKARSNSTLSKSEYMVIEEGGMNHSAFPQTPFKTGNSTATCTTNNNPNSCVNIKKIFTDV

Question: How did the “block of human Kv1.3 current (in words)” value (human Kv1.3) turn out when “N-Terminally PEGylated-Des-Arg1-ShK: folded ShK[2-35] N-terminally mono-PEGylated with 20 kDa MeO-PEG-aldehyde by reductive amination ({mPEG 20 kDa}-SCIDTIPKSRCTAFQCKHSMKYRLSFCRKTCGTC; also: folded, disulfides present but pairing not given here)” was run?
Answer: active in blocking human Kv1.3

Question: What does the source list for “IbTx: BKCa channel inhibitor peptide, purchased from Bachem (QFTDVDCSVSKECWSVCKDLFGVDRGKCMGKKCRCYQ; Definition of Artificial Sequence: Synthetic peptide)”?
Answer: thapsigargin-induced IL-2 production in human whole blood (in words) [1]: no significant activity; thapsigargin-induced IFN-g production in human whole blood (in words) [2]: no significant activity; thapsigargin-induced upregulation of CD40L on T cells in human whole blood (in words) [3]: no significant activity; thapsigargin-induced upregulation of the IL-2R on T cells in human whole blood (in words) [4]: no significant activity

Question: Which “blockade of the whole blood cytokine response (IL-2 and IFNg; in words)” value (shortened to “blockade”) [1] does the source give for “SEQ ID No: 4989: OSK1 analog without beta strand 1 (labeled des 1-7), Table 42 (CKISRQCLKPCKDAGMRFGKCMNGKCHC-NH2; ends and bridges not checked)” here?
Answer: retain activity in blocking inflammation

Question: How did the “fold difference in Kv1.3 potency compared to Fc-L10-OSK1” value (human Kv1.3) turn out when “Fc-L10-OSK1[E16K,K20D]: Fc-L10 fusion of OSK1 with E16K and K20D substitutions (GVIINVKCKISRQCL[hArg]PCKDAGMRFGKCMNGKCACGGG; cysteine pairing not given here; also: Fc-L10 fusion)” was run?
Answer: 1.3 fold

Question: And the hKv1.1/hKv1.3 (human Kv1.3)?
Answer: 403

Question: How did the hKv1.1/hKv1.3 (human Kv1.3) turn out when “Fc-L10-OSK1[K7S,E16K,K20D]: Fc-L10 fusion of OSK1 with K7S, E16K and K20D substitutions” was run?
Answer: 12

Question: With “Fc-L10-OSK1[K7S]: Fc-L10 fusion of OSK1 with lysine to serine at position 7” as the molecule, how does the hKv1.1/hKv1.3 (human Kv1.3) read?
Answer: 269

Question: “Fc-L10-ShK[2-35]: human IgG1 Fc fused via 10 amino acid linker to ShK[2-35]” was tested. Which “thapsigargin-induced IL-2 production in human whole blood (in words)” value [1] did it give?
Answer: suppressed

Question: What about the “thapsigargin-induced IFN-g production in human whole blood (in words)” value [2] of the same molecule?
Answer: suppressed

Question: For CC[C@H](C)[C@@H]1NC(=O)[C@H](CCCCN)NC(=O)[C@@H](NC(=O)[C@H](CCCCN)NC(=O)[C@@H](NC(=O)[C@H](CC(N)=O)NC(=O)[C@@H](NC(=O)[C@@H](NC(=O)[C@@H](NC(=O)CN)C(C)C)[C@@H](C)CC)[C@@H](C)CC)C(C)C)CSSC[C@@H]2NC(=O)[C@H](CCCCN)NC(=O)CNC(=O)[C@H](Cc3ccccc3)NC(=O)[C@H](CCCNC(=N)N)NC(=O)[C@H](CCSC)NC(=O)CNC(=O)[C@H](C)NC(=O)[C@H](CCCCN)NC(=O)[C@H](CCCCN)NC(=O)[C@@H]3CSSC[C@@H](C(=O)N[C@H](C(=O)N4CCC[C@H]4C(=O)N[C@@H](CCCCN)C(=O)O)[C@@H](C)O)NC(=O)[C@H](Cc4c[nH]cn4)NC(=O)[C@H](CSSC[C@H](NC(=O)[C@H](CCC(N)=O)NC(=O)[C@H](CCCNC(=N)N)NC(=O)[C@H](CO)NC1=O)C(=O)N[C@@H](CC(C)C)C(=O)N[C@@H](CCC(=O)O)C(=O)N1CCC[C@H]1C(=O)N3)NC(=O)[C@H](CCCCN)NC(=O)CNC(=O)[C@H](CC(N)=O)NC(=O)[C@H](C)NC2=O [OSK1[Ala-29]] (H-GVIINVKCKISRQCLEPCKKAGMRFGKCANGKCHCTPK-OH; disulfide 8-28, 14-33, 18-35), which “potency in blocking the cytokine response relative to cyclosporin A” value [1] is on record?
Answer: several orders of magnitude more potent

B1: FcLoop-L2-OsK1-L2: OsK1 inserted into human IgG1 Fc loop between Leu139 and Thr140 with Gly linkers (protein)
chain: MDKTHTCPPCPAPELLGGPSVFLFPPKPKDTLMISRTPEVTCVVVDVSHEDPEVKFNWYVDGVEVHNAKTKPREEQYNSTYRVVSVLTVLHQDWLNGKEYKCKVSNKALPAPIEKTISKAKGQPREPQVYTLPPSRDELGGGVIINVKCKISRQCLEPCKKAGMRFGKCMNGKCHCTPKGGTKNQVSLTCLVKGFYPSDIAVEWESNGQPENNYKTTPPVLDSDGSFFLYSKLTVDKSRWQQGNVFSCSVMHEALHNHYTQKSLSLSPGK
modifications: Definition of Artificial Sequence: Synthetic protein
Question: Which “blockade” value [1] does the source give for B1 here?
Answer: potent blockade

B2: PEGylated CH2-OSK1: CH2-OSK1 fusion protein mono-PEGylated with 20 kD methoxy-PEG-aldehyde (conjugate)
chain: MGGHHHHHHGGGPSVFLFPPKPKDTLMISRTPEVTCVVVDVSHEDPEVKFNWYVDGVEVHNAKTKPREEQYNSTYRVVSVLTVLHQDWLNGKEYKCKVSNKALPAPIEKTISGGGGSGGGGSGVIINVKCKISRQCLEPCKKAGMRFGKCMNGKCHCTPK
Question: Which “blockade” value [1] does the source give for B2 here?
Answer: active in blocking inflammation; also recorded: modest blockade

B3: FcLoop-L2-ShK-L2: ShK inserted into human IgG1 Fc loop with Gly linkers (protein)
chain: MDKTHTCPPCPAPELLGGPSVFLFPPKPKDTLMISRTPEVTCVVVDVSHEDPEVKFNWYVDGVEVHNAKTKPREEQYNSTYRVVSVLTVLHQDWLNGKEYKCKVSNKALPAPIEKTISKAKGQPREPQVYTLPPSRDELGGRSCIDTIPKSRCTAFQCKHSMKYRLSFCRKTCGTCGGTKNQVSLTCLVKGFYPSDIAVEWESNGQPENNYKTTPPVLDSDGSFFLYSKLTVDKSRWQQGNVFSCSVMHEALHNHYTQKSLSLSPGK
modifications: Definition of Artificial Sequence: Synthetic protein
Question: With B3 as the molecule, how does the “blockade” value [1] read?
Answer: potent blockade
